Results published in patent US20260209386A1 (MYTHIC THERAPEUTICS, published 2026).
Positions count from the first letter of the chain named.

T1: Human PTK7/CCK4 Protein, His Tag, Acro Biosystems PT7-H52H3 (human, UniProt Q13308 31-704)
T1 construct: bought protein; also called Human PTK7 Protein, His Tag, Acro Biosystems; not shown: His tag
T1 sequence: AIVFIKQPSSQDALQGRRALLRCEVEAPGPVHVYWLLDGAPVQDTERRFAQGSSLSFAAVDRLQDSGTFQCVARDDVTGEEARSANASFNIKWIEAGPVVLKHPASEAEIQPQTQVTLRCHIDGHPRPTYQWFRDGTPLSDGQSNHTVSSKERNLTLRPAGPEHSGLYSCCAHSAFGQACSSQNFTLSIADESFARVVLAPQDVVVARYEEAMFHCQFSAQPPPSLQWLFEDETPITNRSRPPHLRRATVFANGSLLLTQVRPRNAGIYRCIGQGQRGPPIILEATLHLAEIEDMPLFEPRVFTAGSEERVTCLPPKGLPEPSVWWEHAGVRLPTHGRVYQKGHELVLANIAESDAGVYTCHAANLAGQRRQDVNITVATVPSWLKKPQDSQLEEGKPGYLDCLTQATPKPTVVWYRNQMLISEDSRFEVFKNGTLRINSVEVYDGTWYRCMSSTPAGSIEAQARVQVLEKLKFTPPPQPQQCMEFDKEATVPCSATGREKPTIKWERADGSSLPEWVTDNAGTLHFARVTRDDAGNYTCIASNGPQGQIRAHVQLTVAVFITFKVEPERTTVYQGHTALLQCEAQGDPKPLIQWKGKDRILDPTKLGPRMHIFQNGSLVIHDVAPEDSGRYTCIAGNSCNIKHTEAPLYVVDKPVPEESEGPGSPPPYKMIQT

T2: Human PTK7 (human, UniProt Q13308 31-1070)
T2 sequence: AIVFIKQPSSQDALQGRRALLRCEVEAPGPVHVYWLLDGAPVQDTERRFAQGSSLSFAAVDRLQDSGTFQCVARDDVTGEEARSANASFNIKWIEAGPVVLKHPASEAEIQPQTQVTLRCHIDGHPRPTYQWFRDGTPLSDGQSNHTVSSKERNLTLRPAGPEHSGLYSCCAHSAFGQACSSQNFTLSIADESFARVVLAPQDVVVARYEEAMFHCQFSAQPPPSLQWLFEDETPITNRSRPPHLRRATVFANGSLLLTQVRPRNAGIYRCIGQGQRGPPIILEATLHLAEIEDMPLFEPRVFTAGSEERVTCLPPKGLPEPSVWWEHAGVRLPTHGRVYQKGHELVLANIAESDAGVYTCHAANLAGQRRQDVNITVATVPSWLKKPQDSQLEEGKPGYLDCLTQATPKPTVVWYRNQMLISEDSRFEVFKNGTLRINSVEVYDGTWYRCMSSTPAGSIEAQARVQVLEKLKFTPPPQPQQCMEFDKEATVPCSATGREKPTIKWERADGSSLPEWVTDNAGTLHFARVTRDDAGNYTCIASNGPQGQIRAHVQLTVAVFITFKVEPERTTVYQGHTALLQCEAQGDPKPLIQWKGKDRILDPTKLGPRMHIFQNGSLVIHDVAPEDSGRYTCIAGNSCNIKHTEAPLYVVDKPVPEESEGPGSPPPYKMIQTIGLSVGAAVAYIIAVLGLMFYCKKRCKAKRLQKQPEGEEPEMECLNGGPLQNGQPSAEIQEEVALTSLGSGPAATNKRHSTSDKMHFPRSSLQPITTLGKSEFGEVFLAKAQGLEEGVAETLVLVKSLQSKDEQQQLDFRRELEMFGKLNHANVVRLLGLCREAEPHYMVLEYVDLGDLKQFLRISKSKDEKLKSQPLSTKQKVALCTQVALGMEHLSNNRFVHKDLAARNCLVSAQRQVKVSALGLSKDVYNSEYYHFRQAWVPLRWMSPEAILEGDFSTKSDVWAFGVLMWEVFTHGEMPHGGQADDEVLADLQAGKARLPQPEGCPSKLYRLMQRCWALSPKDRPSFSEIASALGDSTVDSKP

B1: MYT11355 (antibody, V domains shown)
VH: EVQLVESGGGLVQPGGSLRLSCTASGIDLSNYAVIWVRQAPGKGLEWVGIIYTYDHTYYANWAKGRFTISRDTSKNTVYLQMNSLRAEDTAVYFCARSFSDISDLIKLWGQGTLVTVSS
VL: EIVMTQSPSTLSASVGDRVIITCQASQSLYNNKDLAWYQQKPGKAPKLLIYEASKLASGVPSRFSGSGSGAEFTLTISSLQPDDFATYYCLGEFSCGSGDCLAFGQGTKLTVL
notes: IgG
B2: MYT11394 (antibody, V domains shown)
VH: B1 VH with H56T
VL: B1 VL with L35H
notes: IgG
B3: MYT11409 (antibody, V domains shown)
VH: B1 VH with H56T
VL: B1 VL with S98H
notes: IgG
B4: MYT11363 (antibody, V domains shown)
VH: B1 VH with H56T, K64H
VL: B1 VL
notes: IgG
B5: MYT11392 (antibody, V domains shown)
VH: B1 VH with H56T
VL: B1 VL with K33H
notes: IgG
B6: MYT11390 (antibody, V domains shown)
VH: B1 VH with H56T
VL: B1 VL with N31H
notes: IgG
B7: MYT11410 (antibody, V domains shown)
VH: B1 VH with H56T
VL: B1 VL with G99H
notes: IgG
B8: MYT11398 (antibody, V domains shown)
VH: B1 VH with H56T
VL: B1 VL with S54H
notes: IgG
B9: MYT11396 (antibody, V domains shown)
VH: B1 VH with H56T
VL: B1 VL with E52H
notes: IgG
B10: MYT11393 (antibody, V domains shown)
VH: B1 VH with H56T
VL: B1 VL with D34H
notes: IgG
B11: MYT11369 (antibody, V domains shown)
VH: B1 VH with H56T, S100H
VL: B1 VL
notes: IgG
B12: MYT11357 (antibody, V domains shown)
VH: B1 VH with H56T, Y58H
VL: B1 VL
notes: IgG
B13: MYT11356 (antibody, V domains shown)
VH: B1 VH with H56T, T57H
VL: B1 VL
notes: IgG
B14: MYT11376 (antibody, V domains shown)
VH: B1 VH with H56T, K107H
VL: B1 VL
notes: IgG
B15: MYT10899 (antibody, V domains shown)
VH: EVQLVESGGGLVQPGGSLRLSCTASGFSLSNYVMNWVRQAPGKGLEWVGIIDSHGSTYYASWAKGRFTISRDTSKNTVYLQMNSLRAEDTAVYFCARGLYLWGQGTLVTVSS
VL: EIVMTQSPSTLSASVGDRVIITCQSSQSVYNNNLLAWYQQKPGKAPKLLIYYTSNLASGVPSRFSGSGSGAEFTLTISSLQPDDFATYYCQGGYNGNIYAFGQGTKLTVL
B16: MYT10917 (antibody, V domains shown)
VH: B15 VH with H54S, F94Y
VL: B15 VL
B17: MYT11033 (antibody, V domains shown)
VH: EVQLVESGGGLVQPGGSLRLSCTASGLSLSSHWMSWVRQAPGKGLEWVGVISAGGNTYYANWAKGRFTISRDTSKNTVYLQMNSLRAEDTAVYFCARGDDGYTNAAYVSNLWGQGTLVTVSS
VL: EIVMTQSPSTLSASVGDRVIITCQASQSISSWLSWYQQKPGKAPKLLIYKASTLASGVPSRFSGSGSGAEFTLTISSLQPDDFATYYCQSYFDSTTIAFGQGTKLTVL
B18: MYT11068 (antibody, V domains shown)
VH: B17 VH with H32Y, L111H
VL: B17 VL
B19: MYT11063 (antibody, V domains shown)
VH: B17 VH with H32Y, A106H
VL: B17 VL
B20: MYT11058 (antibody, V domains shown)
VH: B17 VH with H32Y, G101H
VL: B17 VL
B21: MYT11053 (antibody, V domains shown)
VH: B17 VH with H32Y, A96H
VL: B17 VL
B22: MYT11056 (antibody, V domains shown)
VH: B17 VH with H32Y, D99H
VL: B17 VL
B23: MYT11059 (antibody, V domains shown)
VH: B17 VH with H32Y, Y102H
VL: B17 VL
B24: MYT10952 (antibody, V domains shown)
VH: EVQLVESGGGLVQPGGSLRLSCTASGHSLSSYAMGWVRQAPGKGLEWVGFINAGGNTYYANWAKGRFTISRDTSKNTVYLQMNSLRAEDTAVYFCARRYSRASGWYDLWGQGTLVTVSS
VL: EIVMTQSPSTLSASVGDRVIITCQASQSISSYLAWYQQKPGKAPKLLIYAASTLASGVPSRFSGSGSGAEFTLTISSLQPDDFATYYCQSYSYSSGIDYGDVFGQGTKLTVL
B25: MYT10955 (antibody, V domains shown)
VH: B24 VH with H27F, S30H
VL: B24 VL
B26: MYT11017 (antibody, V domains shown)
VH: B24 VH with H27F
VL: B24 VL with G96H
B27: MYT10989 (antibody, V domains shown)
VH: B24 VH with H27F, L108H
VL: B24 VL
B28: MYT11005 (antibody, V domains shown)
VH: B24 VH with H27F
VL: B24 VL with S52H

biological target: T1, Human PTK7/CCK4 Protein, His Tag, Acro …; assay: BLI, antibody on anti-human Fc sensor, 50 nM PTK7

binding result	Binder
binds	B1
binds	B2
binds	B3
binds	B4
binds	B5
binds	B6
binds	B7
binds	B8
binds	B9
binds	B10
binds	B11
binds	B12
binds	B13
binds	B14

biological target: T2, Human PTK7; assay: cell-based or functional assay

Internalization, FOW @ 25 nM (fold over the wildtype, parental antibody)	Binder
1.14 fold over parental antibody	B15
1.29 fold over parental antibody	B16
1.19 fold over parental antibody	B17
1.22 fold over parental antibody	B18
2.04 fold over parental antibody	B19
1.26 fold over parental antibody	B20
1.25 fold over parental antibody	B21
1.1 fold over parental antibody	B22
1.27 fold over parental antibody	B23
1.06 fold over parental antibody	B24
1.05 fold over parental antibody	B25
1.2 fold over parental antibody	B26
1.09 fold over parental antibody	B27
1.05 fold over parental antibody	B28
